Measurements from US20230265151A1, “GIP/GLP1 CO-AGONIST COMPOUNDS” (priority 2020, published 2023).
Changes are numbered by the printed parent chain. *1 amine or outer side, *2 acyl side, *3 side chain or, on linkers, in order; H or OH if unused. Where no end group is shown, it is not given here. Side-chain parts run from the residue outwards. [ ]: non-standard residue; d: D form. The star is where a group is joined. Decanoyl(10-(4-HOOC-PhO)) = O=C(O)c1ccc(OCCCCCCCCCC(=O)*)cc1; αMePhe(2-F) = C[C@](N)(Cc1ccccc1F)C(=O)O; γGlu = O=C(O)[C@H](CCC(=O)[*:2])N[*:1]; αMeY = C[C@](N)(Cc1ccc(O)cc1)C(=O)O; αMeL = CC(C)C[C@](C)(N)C(=O)O; Orn = NCCC[C@H](N)C(=O)O; AEEA = NCCOCCOCC(=O)O; Om = not defined here; Aib = CC(C)(N)C(=O)O

T1: human GIP receptor (human, UniProt P48546 22-466)
T1 sequence (looked up): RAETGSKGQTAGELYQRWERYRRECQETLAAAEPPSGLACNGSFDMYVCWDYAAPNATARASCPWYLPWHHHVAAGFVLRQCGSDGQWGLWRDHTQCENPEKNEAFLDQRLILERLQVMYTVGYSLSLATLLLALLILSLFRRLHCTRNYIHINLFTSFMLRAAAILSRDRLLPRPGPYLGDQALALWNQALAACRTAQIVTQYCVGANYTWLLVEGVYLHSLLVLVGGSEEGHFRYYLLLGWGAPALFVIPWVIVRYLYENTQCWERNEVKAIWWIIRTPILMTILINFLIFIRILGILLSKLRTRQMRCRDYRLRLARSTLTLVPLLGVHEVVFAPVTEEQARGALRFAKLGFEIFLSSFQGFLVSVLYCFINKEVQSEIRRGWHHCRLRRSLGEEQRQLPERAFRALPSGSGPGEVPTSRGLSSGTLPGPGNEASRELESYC

T2: human GIP receptor (human) (UniProt P48546)
T2 sequence (looked up): T1 sequence (looked up)

B1: Example 372 (peptide)
peptide: YXEGTXTSDYXIXLDXKAQXKFIXXLIEGGPSSGAPPPS
modifications: Y-Aib-EGT-αMeF(2F)-TSDY-Aib-I-αMeL-LD-Orn-K((2-[2-(2-Amino-ethoxy)-ethoxy]-acetyl)-(γ-Glu)-(10-(4-carboxyphenoxy)decanoyl))AQ-Aib-K((2-[2-(2-Amino-ethoxy)-ethoxy]-acetyl)-(γ-Glu)-(10-(4-carboxyphenoxy)decanoyl))FI-(D-Glu)-αMeY-LIEGGPSSGAPPPS-NH2
B2: Example 425 (peptide)
peptide: B1 peptide with Y10K, K21E
modifications: Y-Aib-EGT-αMeF(2F)-TSDK((2-[2-(2-Amino-ethoxy)-ethoxy]-acetyl)-(γ-Glu)-CO-(CH2)10-CH3)-Aib-I-αMeL-LD-Orn-K((2-[2-(2-Amino-ethoxy)-ethoxy]-acetyl)-(γ-Glu)-CO-(CH2)10-CH3)AQ-Aib-EFI-(D-Glu)-αMeY-LIEGGPSSGAPPPS-NH2
B3: Example 373 (peptide)
peptide: B1 peptide with K21E, E28K
modifications: Y-Aib-EGT-αMeF(2F)-TSDY-Aib-I-αMeL-LD-Orn-K((2-[2-(2-Amino-ethoxy)-ethoxy]-acetyl)-(γ-Glu)-(10-(4-carboxyphenoxy)decanoyl))AQ-Aib-EFI-(D-Glu)-αMeY-LIK((2-[2-(2-Amino-ethoxy)-ethoxy]-acetyl)-(γ-Glu)-(10-(4-carboxyphenoxy)decanoyl))GGPSSGAPPPS-NH2
B4: Example 366 (peptide)
peptide: B1 peptide
modifications: Y-Aib-EGT-αMeF(2F)-TSDY-Aib-I-αMeL-LD-Orn-K((2-[2-(2-Amino-ethoxy)-ethoxy]-acetyl)-(γ-Glu)-CO-(CH2)12-CO2H)AQ-Aib-K((2-[2-(2-Amino-ethoxy)-ethoxy]-acetyl)-(γ-Glu)-CO-(CH2)12-CO2H)FI-(D-Glu)-αMeY-LIEGGPSSGAPPPS-NH2
B5: Example 416 (peptide)
peptide: B1 peptide with Y10X, K21X, E28K
modifications: Y-Aib-EGT-αMeF(2F)-TSD-4Pal-Aib-I-αMeL-LD-Orn-K((2-[2-(2-Amino-ethoxy)-ethoxy]-acetyl)2-(γ-Glu)-CO-(CH2)10-CH3)AQ-Aib-4Pal-FI-(D-Glu)-αMeY-LIK((2-[2-(2-Amino-ethoxy)-ethoxy]-acetyl)2-(γ-Glu)-CO-(CH2)10-CH3)GGPSSGAPPPS-NH2
B6: Example 376 (peptide)
peptide: B1 peptide with K17I, E28K
modifications: Y-Aib-EGT-αMeF(2F)-TSDY-Aib-I-αMeL-LD-Orn-IAQ-Aib-K((2-[2-(2-Amino-ethoxy)-ethoxy]-acetyl)-(γ-Glu)-(10-(4-carboxyphenoxy)decanoyl))FI-(D-Glu)-αMeY-LIK((2-[2-(2-Amino-ethoxy)-ethoxy]-acetyl)-(γ-Glu)-(10-(4-carboxyphenoxy)decanoyl))GGPSSGAPPPS-NH2
B7: Example 353 (peptide)
peptide: Y[Aib]EGT[αMePhe(2-F)]TSDV[Aib]I[αMeL]LD[Orn]K([AEEA-AEEA-γGlu-Decanoyl(10-(4-HOOC-PhO))])AQ[Aib][Om]FI[dE][αMeY]LIK([AEEA-AEEA-γGlu-Decanoyl(10-(4-HOOC-PhO))])GGPSSGAPPPS-NH2
modifications: reading uncertain; also: printed as Y-Aib-EGT-αMeF(2F)-TSDV-Aib-I-αMeL-LD-Orn-K((2-[2-(2-Amino-ethoxy)-ethoxy]-acetyl)2-(γ-Glu)-(10-(4-carboxyphenoxy)decanoyl))AQ-Aib-Om-FI-(D-Glu)-αMeY-LIK((2-[2-(2-Amino-ethoxy)-ethoxy]-acetyl)2-(γ-Glu)-(10-(4-carboxyphenoxy)decanoyl))GGPSSGAPPPS-NH2

target: T1, human GIP receptor; test: cell-based or functional assay

| Binder | cAMP EC50 (1.0% HSA) | cAMP Emax (1.0% HSA) |
| --- | --- | --- |
| B1 | 3.75 nM | 90.6% |
| B2 | 0.875 nM | 89.9% |
| B3 | 2.84 nM | – |
| B4 | 3.14 nM | 95.9% |
| B5 | 0.723 nM | 83% |
| B6 | 39.6 nM | 88.3% |
| B7 | 5.35 nM | 84.8% |
| Y[Aib]EGT[αMePhe(2-F)]TSDV[Aib]I[αMeL]LD[Orn]K([AEEA-γGlu-Decanoyl(10-(4-HOOC-PhO))])AQ[Aib]EFI[dE][αMeY]LIK([AEEA-γGlu-Decanoyl(10-(4-HOOC-PhO))])GGPSSGAPPPS-NH2 [Example 379] | 11.6 nM | 90% |

target: human glucagon receptor (human, UniProt P47871 26-477); test: cell-based or functional assay
Sequence (P47871 26-477): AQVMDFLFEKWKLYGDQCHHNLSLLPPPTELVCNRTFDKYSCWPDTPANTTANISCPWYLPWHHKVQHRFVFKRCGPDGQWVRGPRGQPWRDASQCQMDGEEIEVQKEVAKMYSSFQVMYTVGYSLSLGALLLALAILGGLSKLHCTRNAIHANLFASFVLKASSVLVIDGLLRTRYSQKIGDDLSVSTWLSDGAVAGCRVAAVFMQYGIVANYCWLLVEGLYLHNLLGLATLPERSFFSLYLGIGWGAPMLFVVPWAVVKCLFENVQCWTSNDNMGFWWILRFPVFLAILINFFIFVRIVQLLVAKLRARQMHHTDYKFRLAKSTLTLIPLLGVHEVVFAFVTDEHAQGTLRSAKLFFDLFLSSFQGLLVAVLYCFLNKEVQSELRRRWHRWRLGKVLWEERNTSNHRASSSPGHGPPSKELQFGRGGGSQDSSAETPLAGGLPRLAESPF

| Binder | cAMP EC50 (1.0% HSA) |
| --- | --- |
| B1 | > 9950 nM |
| B2 | > 9950 nM |
| B3 | > 9950 nM |
| B4 | > 9950 nM |
| B5 | > 9950 nM |
| B6 | > 9950 nM |
| B7 | > 9950 nM |
| Y[Aib]EGT[αMePhe(2-F)]TSDV[Aib]I[αMeL]LD[Orn]K([AEEA-γGlu-Decanoyl(10-(4-HOOC-PhO))])AQ[Aib]EFI[dE][αMeY]LIK([AEEA-γGlu-Decanoyl(10-(4-HOOC-PhO))])GGPSSGAPPPS-NH2 [Example 379] | > 9950 nM |

target: human GLP-1 receptor (human, UniProt P43220 24-463); test: cell-based or functional assay

| Binder | cAMP EC50 (1.0% HSA) | cAMP Emax (1.0% HSA) |
| --- | --- | --- |
| B1 | 38 nM | – |
| B3 | 37.4 nM | – |
| B4 | 96.2 nM | – |
| B6 | 419 nM | 121% |
| B7 | 7.12 nM | 92.5% |
| Y[Aib]EGT[αMePhe(2-F)]TSDV[Aib]I[αMeL]LD[Orn]K([AEEA-γGlu-Decanoyl(10-(4-HOOC-PhO))])AQ[Aib]EFI[dE][αMeY]LIK([AEEA-γGlu-Decanoyl(10-(4-HOOC-PhO))])GGPSSGAPPPS-NH2 [Example 379] | 48.5 nM | – |

target: T2, human GIP receptor (human); test: cell-based or functional assay

| Binder | cAMP EC50 | cAMP Emax |
| --- | --- | --- |
| B1 | 0.0112 nM | 97.3% |
| B2 | 0.00943 nM | 97.6% |
| B3 | 0.0152 nM | 101% |
| B4 | 0.0162 nM | 108% |
| B5 | 0.0214 nM | 99% |
| B6 | 0.0281 nM | 99.8% |
| B7 | 0.0249 nM | 98.2% |
| Y[Aib]EGT[αMePhe(2-F)]TSDV[Aib]I[αMeL]LD[Orn]K([AEEA-γGlu-Decanoyl(10-(4-HOOC-PhO))])AQ[Aib]EFI[dE][αMeY]LIK([AEEA-γGlu-Decanoyl(10-(4-HOOC-PhO))])GGPSSGAPPPS-NH2 [Example 379] | 0.0167 nM | 97.5% |

target: hGLP-1R (Homo sapiens, UniProt P43220); test: cell-based or functional assay

| Binder | cAMP EC50 | cAMP Emax |
| --- | --- | --- |
| B1 | 0.291 nM | 108% |
| B2 | 0.0965 nM | 108% |
| B3 | 0.329 nM | 101% |
| B4 | 0.279 nM | 89.6% |
| B5 | 0.332 nM | 104% |
| B6 | 0.539 nM | 104% |
| B7 | 0.203 nM | 98% |
| Y[Aib]EGT[αMePhe(2-F)]TSDV[Aib]I[αMeL]LD[Orn]K([AEEA-γGlu-Decanoyl(10-(4-HOOC-PhO))])AQ[Aib]EFI[dE][αMeY]LIK([AEEA-γGlu-Decanoyl(10-(4-HOOC-PhO))])GGPSSGAPPPS-NH2 [Example 379] | 0.171 nM | 104% |

target: human glucagon receptor (human) (UniProt P47871); test: cell-based or functional assay

| Binder | cAMP EC50 |
| --- | --- |
| B1 | > 9950 nM |
| B2 | > 9950 nM |
| B3 | > 9950 nM |
| B4 | > 9950 nM |
| B5 | > 9950 nM |
| B6 | > 9950 nM |
| B7 | > 9950 nM |
| Y[Aib]EGT[αMePhe(2-F)]TSDV[Aib]I[αMeL]LD[Orn]K([AEEA-γGlu-Decanoyl(10-(4-HOOC-PhO))])AQ[Aib]EFI[dE][αMeY]LIK([AEEA-γGlu-Decanoyl(10-(4-HOOC-PhO))])GGPSSGAPPPS-NH2 [Example 379] | > 9950 nM |
